The DeepSol protein solubility set

Assay: soluble on expression in E. coli; label from the status in PepcDB or PDB records
With “LSPSLPSVEALRNVQLQIPLKVYSEDGKLISEFGEMRRTPIRFADIPQDFIHALLSAEDDNFANHYGVDVKSLMRAAAQLLKSGHIQTGGSTITMQVAKNYFLTNERSFSRKINEILLALQIERQLTKDEILELYVNKIYLGNRAYGIEAAAQVYYGKPIKDLSLAEMAMIAGLPKAPSRYNPLVNPTRSTERRNWILERMLKLGFIDQQRYQAAVEEPINASYHVQTPELNAPYIAEMARAEMVGRYGSEAYTEGYKVITTVRSDLQNAASQSVRDGLIDYDQRHGYRGPETRLPGQTRDAWLKHLGQQRSIGGLEPAIVTQVEKSGIMVMTRDGKEEAVTWDSMKWARPFLSNNSMGPMPRQPADVAQAGDQIRVQRQEDGTLRFVQIPAAQSALISLDPKDGAIRSLVGGFSFEQSNYNRAIQAKRQPGSSFKPFIYSAALDNGFTAASLVNDAPIVFVDEYLDKVWRPKNDTNTFLGPIPLREALYKSRNMVSIRVLQGLGIERAISYITKFGFQRDELPRNFSLALGTATVTPMEIAGAWSVFANGGYKVNPYVIERIESRDGQVLYQANPPRVPVEEQVAADAEDAGNPGDPEHPESAEGEGSIEAQQVAAKAQTTFEPTPAERIIDARTAYIMTSMLQDVIKRGTGRRALALKRTDLAGKTGTTNDSKDGWFSGYNSDYVTSVWVGFDQPETLGRREYGGTVALPIWIRYMGFALKDKPMHTMAEPPGIVSLRIDPVTGRSAAPGTPGAYFEMFKNEDTPPSVNELPPGSFPGSPLPDDEGAPIDL” the “soluble on expression in E. coli” value was “not soluble”. For “LTVHYDLQLYKINYKTQSPDGNLTIASGLVAMPIHPVGQVGIISYQHGTRFERNDVPSRNNEKNYIYLAAYGNSAGYMTVMPDYLGLGDNELTLHPYVQAETLASSSIDMLFAAKELANRLHYPISDKLYLAGYSEGGFSTIVMFEMLAKEYPDLPVSAVAPGSAPYGWEETMHFVMLEPGPRATAYLAYFFYSLQTYKSYWSGFDEIFAPPYNTLIPELMDGYHAVDEILQALPQDPLLIFQPKFSNGIISKTDRNTEILKINFNHYDFKPTAPLLLVGTKGDRDVPYAGAEMAYHSFRKYSDFVWIKSVSDALDHVQAHPFVLKEQVDFFKQFERQE”, the “soluble on expression in E. coli” value was “not soluble”. With “LVTISSTSAASLPTMPPSGYDQVRNGVPRGQVVNISYFSTATNSTRPARVYLPPGYSKDKKYSVLYLLHGIGGSENDWFEGGGRANVIADNLIAEGKIKPLIIVTPNTNAAGPGIADGYENFTKDLLNSLIPYIESNYSVYTDREHRAIAGLSMGGGQSFNIGLTNLDKFAYIGPISAAPNTYPNERLFPDGGKAAREKLKLLFIACGTNDSLIGFGQRVHEYCVANNINHVYWLIQGGGHDFNVWKPGLWNFLQMADEAGLTRDGNT” the “soluble on expression in E. coli” value was “soluble”. With “LYLAGIGQYAALLEAGFARARSAEETVRLLVTSYIDWVVANPDWARFILHSRGRVEAGELGERLRADNQAHFARIHAALAGYRAEGLFREMPDDCFASVVIGPAHDLARQWLAGRTRVALADCRELLAQVAWDSVRAA” the “soluble on expression in E. coli” value was “soluble”. In the case of “MAAAAAAKIAPSMLSSDFANLAAEADRMVRLGADWLHMDIMDGHFVPNLTIGAPVIQSLRKHTKAYLDCHLMVTNPSDYVEPLAKAGASGFTFHIEVSRDNWQELIQSIKAKGMRPGVSLRPGTPVEEVFPLVEAENPVELVLVMTVEPGFGGQKFMPEMMEKVRALRKKYPSLDIEVDGGLGPSTIDVAASAGANCIVAGSSIFGAAEPGEVISALRKSVEGSQNKS”, the “soluble on expression in E. coli” value was “soluble”. With “MAAAAELSLLEKSLGLSKGNKYSAQGERQIPVLQTNNGPSLMGLTTIAAHLVKQANKEYLLGSTAEEKAMVQQWLEYRVTQVDGHSSKNDIHTLLMDLNSYLEDKVYLTGYNFTLADILLYYGLHRFIVDLTVQEKEKYLNVSRWFCHIQHYPGIRQHLSSVVFIKNRLYTNSH” the “soluble on expression in E. coli” value was “soluble”. With “MAAERLDPWGAVEIKDYDRLLRTFGIRPFSEVLPLLRKAGMEPSFLMRRGIIFGHRDFDKILEAKARGERVAVLTGFMPSGKFHFGHKLTVDQLIYLQKNGFKVFVAIADAEAFAVRRIGREEAVRIAVEEYIANMIALGLDPKDTEFYFQTNRGTPYFRLIQLFSGKVTAAEMEAIYGELTPAKMMASLTQAADILHVQLDEYGGYRHVVVPVGADQDPHLRLTRDLADRMAGVVELERPASTYHKLQPGLDGRKMSSSRPDSTIFLTDPPEVARNKLFRALTGGRATAEEQRRLGGVPEVCSVYHMDLYHLMPDDGEVKHIYTSCRLGKILCGECKQIAWEKLERFLAEHQSRLEKAKTIAWKLVEPPRF” the “soluble on expression in E. coli” value was “soluble”. With “MAAESATTETVEKSGNEESTVEVKVNGEAQNPPQESAKPAESVEDDDEPAPAKKRSGGDSEEKEDEAAEDGPEDGEEKSNLDDDQNVENPAYIPKTGRFYMHDDNRRGDVNNSQVQDDDSDDRRNLKKSRADCDWKHDRFDEKFQRPKTKKQIVTKYGFDIRHKDGTPIQDGEEIDAPAPESTEEESSDARQVSRQQKDRRVSSTTRGKVGKSGTSRRPMKQREREDTVDESKGEEEEDQGVRPAQKRQVKQQEKPRKQKPAAPPSSEENEEDEDDGAIRRGQRRAVPLRRGTTSGPPSRLRGRMSHPMGPPRRSSGAPPSSASNRRPVESSSRGPPPPPSSSSRRDYSHQGDRNDDRFENHRRGVIRGASRGGGTVTRGTGGYGRTGAIRGGVRGSGAPRYGVRRTDTSEQSEGYQRGGSGTDYSSPRPNHQSDRSYQASSTNFRGGSHPHPSANVYPSSRGGYSSNNADYASRGGGGYHGPPQHHNNHHNHQQKRFVQGPPPPMVAVGVVPGNVVPPPQMTRGSTHGGNQHNGGGGGGSGGQQRIRQPTDVVYFDPQQQQGTRQLPPRSKKVIPIVDPKDHQ” the “soluble on expression in E. coli” value was “not soluble”. In the case of “MAAFNAKYLIDLLKRIRSGEESIDSPDALELLYIPLPLAHELGVINSMDGLDPYDEMEISCKSILKKLDEKKKTEEKHRAKQERQAQKKGAKEQAKKEKAELKKEAKELLKKEKAEERKKESLKRKLSEKSEPAAKKAKASEDQENRGATKKKITPPNRKHTALFKKCMAMRVKNFAY”, the “soluble on expression in E. coli” value was “not soluble”. For “MAAGQNGHEEWVGSAYLFVESSLDKVVLSDAYAHPQQKVAVYRALQAALAESGGSPDVLQMLKIHRSDPQLIVQLRFCGRQPCGRFLRAYREGALRAALQRSLAAALAQHSVPLQLELRAGAERLDALLADEERCLSCILAQQPDRLRDEELAELEDALRNLKCGSGARGGDGEVASAP”, the “soluble on expression in E. coli” value was “soluble”. In the case of “MAALFQEASSCPVCSDYLEKPMSLECGCTVCLKCINSLQKEPHGEDLLCCCCSMVSQRNKIRPNRQLERLVSHIKELEPKMKKILQMNPRMRKFQVDMTLDADTANNFLLISDDLRSVRSGLITQNRQDLAERFDVSVCILGSPRFTCGRHYWEVDVGTSTEWDLGVCRESVHCKGKIQLTTELGFWTVSLRDGSRLSASTVPLTFLLVDRKLQRVGIFLDMGMQNVSFFDAESGSHVYTFRSVSAEEPLRPFLAPSIPPNGDQGVLSICPLMNSGTTDAPVRPGEAK”, the “soluble on expression in E. coli” value was “soluble”. In the case of “MAAQRRSLLQSEQQPSWTDDLPLCHLSGVGSASNRSYSADGKGTESHPPEDSWLKFRSENNCFLYGVFNGYDGNRVTNFVAQRLSAELLLGQLNAEHAEADVRRVLLQAFDVVERSFLESIDDALAEKASLQSQLPEGVPQHQLPPQYQKILERLKTLEREISGGAMAVVAVLLNNKLYVANVGTNRALLCKSTVDGLQVTQLNVDHTTENEDELFRLSQLGLDAGKIKQVGIICGQESTRRIGDYKVKYGYTDIDLLSAAKSKPIIAEPEIHGAQPLDGVTGFLVLMSEGLYKALEAAHGPGQANQEIAAMIDTEFAKQTSLDAVAQAVVDRVKRIHSDTFASGGERARFCPRHEDMTLLVRNFGYPLGEMSQPTPSPAPAAGGRVYPVSVPYSSAQSTS”, the “soluble on expression in E. coli” value was “soluble”. In the case of “MACKLLFWKLKDYQNILLYSPLGHELDIRPLIFRLRQKNKCVWLPKSIKKGAHFSKESFTIAPFRLPLRRLGWFDEPSLSRYYKQELDCIVVPILGMDTSFRRVGFGLGMYDRSLPQLLKRRLKRPLIVFVSRELAIANGVLTNAYDIEADLYMNARIVVKNNKRKHYEQRVNLHFIRSLGSVFDYRSSHVLCDEKDLLRLEHHHHHH”, the “soluble on expression in E. coli” value was “not soluble”. For “MADDFKTAQMNNPHLRNYVEKFKKTYMKVPEFVPSLSRDFKEIKYPNIIYPIGDPIFIHLYGTPNLKTRYIAIEPKLNGSEERKKYFDILDKILEYAPYSDIPENDEEFGKVVTKLFDMVAK”, the “soluble on expression in E. coli” value was “not soluble”.
